Measured values reported in patent US20250376536A1 (Bristol-Myers Squibb, published 2025).

Tests used:
human CD40 protein = molecular target: T1, human CD40 protein (human, UniProt P25942 21-193); test: SPR
T1 construct: Protein used in SPR
Protocol: (§1) CD40.9H3×FAP.LP62 and an analog of RO7300490 (see SEQ ID NOs: 39-42) binding to human and cynomolgus (cyno) CD40 and FAP was evaluated by surface plasmon resonance (SPR) using human and cyno CD40 and FAP proteins. […] The rates of association and dissociation of CD40.9H3×FAP.LP62 and the analog of RO7300490 to human CD40 and FAP are summarized in Table 2.

human FAP protein = molecular target: T2, human FAP protein (human, UniProt Q12884 26-760); test: SPR
T2 sequence: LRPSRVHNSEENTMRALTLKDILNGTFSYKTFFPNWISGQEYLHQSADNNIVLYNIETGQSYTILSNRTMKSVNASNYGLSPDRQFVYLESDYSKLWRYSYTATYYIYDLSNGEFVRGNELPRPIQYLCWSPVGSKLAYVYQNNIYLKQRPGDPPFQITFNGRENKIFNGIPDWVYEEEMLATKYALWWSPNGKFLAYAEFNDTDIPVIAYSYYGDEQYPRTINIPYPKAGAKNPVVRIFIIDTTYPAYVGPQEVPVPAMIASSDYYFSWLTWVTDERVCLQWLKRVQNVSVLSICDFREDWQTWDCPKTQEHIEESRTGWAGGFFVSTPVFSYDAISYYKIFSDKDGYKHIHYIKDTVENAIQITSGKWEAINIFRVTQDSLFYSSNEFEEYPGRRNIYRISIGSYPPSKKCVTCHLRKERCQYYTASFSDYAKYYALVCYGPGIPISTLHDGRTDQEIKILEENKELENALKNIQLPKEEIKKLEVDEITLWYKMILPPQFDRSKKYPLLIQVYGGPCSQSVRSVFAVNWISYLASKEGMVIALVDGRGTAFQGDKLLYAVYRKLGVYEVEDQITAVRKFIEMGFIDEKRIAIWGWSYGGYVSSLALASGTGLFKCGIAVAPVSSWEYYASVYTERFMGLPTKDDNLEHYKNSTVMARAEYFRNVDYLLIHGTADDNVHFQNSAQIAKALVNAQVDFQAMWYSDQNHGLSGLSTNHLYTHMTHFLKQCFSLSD
Protocol: as §1

soluble FAP [1] = molecular target: T3, soluble FAP (human, UniProt Q12884 26-760, limits assumed); test: cell-based or functional assay
T3 sequence: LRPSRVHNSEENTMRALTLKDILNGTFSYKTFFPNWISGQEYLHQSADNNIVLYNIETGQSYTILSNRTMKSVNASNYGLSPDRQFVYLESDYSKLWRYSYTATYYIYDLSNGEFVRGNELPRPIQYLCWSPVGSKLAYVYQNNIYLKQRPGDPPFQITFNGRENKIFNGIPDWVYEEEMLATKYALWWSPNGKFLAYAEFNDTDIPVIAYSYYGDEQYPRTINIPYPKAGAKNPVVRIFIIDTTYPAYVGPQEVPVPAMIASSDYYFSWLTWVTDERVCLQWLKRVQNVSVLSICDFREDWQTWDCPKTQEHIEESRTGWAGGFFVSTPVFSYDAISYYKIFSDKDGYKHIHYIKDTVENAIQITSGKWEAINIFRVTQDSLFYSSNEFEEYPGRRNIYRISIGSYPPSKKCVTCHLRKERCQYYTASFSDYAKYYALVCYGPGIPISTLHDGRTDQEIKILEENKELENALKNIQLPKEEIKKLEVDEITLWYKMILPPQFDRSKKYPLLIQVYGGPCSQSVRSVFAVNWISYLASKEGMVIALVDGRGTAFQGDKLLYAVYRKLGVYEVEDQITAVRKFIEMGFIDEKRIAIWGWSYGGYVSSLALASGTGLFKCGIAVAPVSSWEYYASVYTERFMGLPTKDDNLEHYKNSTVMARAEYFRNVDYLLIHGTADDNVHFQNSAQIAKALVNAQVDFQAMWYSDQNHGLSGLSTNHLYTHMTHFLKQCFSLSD

soluble FAP [2] = molecular target: T3, soluble FAP; test: cell-based or functional assay; remark: listed apart in the source
human FAP on cells = molecular target: T4, human FAP on cells (human, UniProt Q12884 1-760); test: cell-based or functional assay
T4 sequence: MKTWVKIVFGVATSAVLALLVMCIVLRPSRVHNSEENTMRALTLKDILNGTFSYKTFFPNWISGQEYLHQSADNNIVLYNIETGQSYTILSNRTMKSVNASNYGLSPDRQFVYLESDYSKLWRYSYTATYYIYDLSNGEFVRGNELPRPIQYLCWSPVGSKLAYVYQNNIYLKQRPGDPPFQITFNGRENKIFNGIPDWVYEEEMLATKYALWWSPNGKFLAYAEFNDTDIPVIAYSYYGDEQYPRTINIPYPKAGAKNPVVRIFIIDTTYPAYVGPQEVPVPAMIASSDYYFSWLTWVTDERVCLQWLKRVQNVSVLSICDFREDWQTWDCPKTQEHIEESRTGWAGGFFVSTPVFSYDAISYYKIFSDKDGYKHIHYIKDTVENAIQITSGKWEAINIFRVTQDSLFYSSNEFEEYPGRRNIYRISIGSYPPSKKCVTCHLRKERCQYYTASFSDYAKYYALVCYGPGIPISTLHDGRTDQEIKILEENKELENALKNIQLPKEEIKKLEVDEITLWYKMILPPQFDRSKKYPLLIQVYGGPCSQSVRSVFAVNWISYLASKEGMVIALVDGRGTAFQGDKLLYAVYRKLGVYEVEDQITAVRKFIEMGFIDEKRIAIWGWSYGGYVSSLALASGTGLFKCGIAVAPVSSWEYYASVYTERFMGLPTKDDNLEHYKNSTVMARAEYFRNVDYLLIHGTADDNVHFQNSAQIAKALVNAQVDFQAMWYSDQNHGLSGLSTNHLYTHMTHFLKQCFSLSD

FcγRI (CD64) = molecular target: T5, FcγRI (CD64) (UniProt P12314 16-288, limits assumed); test: SPR, Biacore S200, antibody captured on Protein A chip, FcγR as analyte
T5 construct: also called FcγR1 (CD64); FcγR1
Protocol: Binding of CD40.9H3×FAP.LP62 and the analog of RO7300490 to various Fc gamma receptors (FcγR1 (CD64), FcγRIIIA (CD16a), FcγRIIIB (CD16b), FcγRIIA (CD32a), FcγRIIB (CD32b)) was determined in an analyte/capture assay in vitro. Briefly, an SPR assay was performed using a Biacore S200 with a Biacore Series S Protein A chip (Cytiva). All antibodies were prepared at 4.0 μg/ml in 1×HBS-EP+ running buffer (Cytiva) and captured onto flow cells 2, 3, and 4 through a 60 second contact time at 10 μl/min. An analyte series of the FcγRs (BMS In-House Produced) were prepared at 10,000 nM in 1×HBS-EP+ with eight, three-fold dilutions. Kinetic measurements were conducted with a 120 second association followed by a 120 second dissociation at 30 μl/min. Surface regeneration was preformed by 60 second contact time of 50 mM Glycine pH 1.5 solution (Cytiva) at 30 μl/min. Data was processed in Biacore Insight Evaluation Version 5 (Cytiva). Sensorgrams were double referenced and globally fit to a 1:1 Langmuir model were applicable. Where 1:1 model was not sufficient to describe the interaction (fast-on and fast-off rates), steady state equilibrium fitting was used to determine the equilibrium constant.

T1 sequence (P25942 21-193 limits assumed): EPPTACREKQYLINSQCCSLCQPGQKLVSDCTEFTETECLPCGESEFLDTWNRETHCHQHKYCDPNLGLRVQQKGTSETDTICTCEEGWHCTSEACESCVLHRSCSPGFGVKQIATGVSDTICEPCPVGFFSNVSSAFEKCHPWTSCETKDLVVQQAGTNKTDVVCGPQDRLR
T5 sequence (P12314 16-288 limits assumed): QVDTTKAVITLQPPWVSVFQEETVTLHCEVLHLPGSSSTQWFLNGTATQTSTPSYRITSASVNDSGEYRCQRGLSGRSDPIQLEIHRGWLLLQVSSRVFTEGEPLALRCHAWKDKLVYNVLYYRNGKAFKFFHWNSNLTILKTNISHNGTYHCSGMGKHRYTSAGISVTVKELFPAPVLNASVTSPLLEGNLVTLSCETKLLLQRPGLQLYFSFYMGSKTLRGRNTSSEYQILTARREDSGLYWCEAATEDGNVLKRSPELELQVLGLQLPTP

Kd (human CD40 protein): 4.9 nM
koff (human CD40 protein): 0.00555 s⁻¹
kon (human CD40 protein): 1.13e+06 M⁻¹ s⁻¹
Kd (human FAP protein): 0.265 nM
koff (human FAP protein): 4.83e-05 s⁻¹
kon (human FAP protein): 182000 M⁻¹ s⁻¹
fold reduction in potency of IL12p40 secretion with 120 ng/mL soluble FAP (soluble FAP [1]): 14.2 fold
fold reduction in potency of IL12p40 secretion with 480 ng/mL soluble FAP (soluble FAP [1]): 70.9 fold
IL12p40 release, human DC + HFF1 co-culture, EC50, soluble FAP 120 ng/mL (soluble FAP [2]): 1.14 nM
IL12p40 release, human DC + HFF1 co-culture, EC50, soluble FAP 480 ng/mL (soluble FAP [2]): 516 nM
IL12p40 release, human DC + HFF1 co-culture, EC50, soluble FAP 0 ng/mL (human FAP on cells): 0.09 nM
Kd (FcγRI (CD64)): 2550 nM
B1: analog of RO7300490 (bispecific antibody, human IgG1, kappa, L234A L235A)
heavy 1: not shown
heavy 2: QVQLVQSGAEVKKPGASVKVSCKASGYSFTGYYIHWVRQAPGQSLEWMGRVIPNAGGTSYNQKFKGRVTLTVDKSISTAYMELSRLRSDDTAVYYCAREGIYWWGQGTTVTVSSASTKGPSVFPLAPSSKSTSGGTAALGCLVEDYFPEPVTVSWNSGALTSGVHTFPAVLQSSGLYSLSSVVTVPSSSLGTQTYICNVNHKPSNTKVDEKVEPKSCDKTHTCPPCPAPEAAGGPSVFLFPPKPKDTLMISRTPEVTCVVVDVSHEDPEVKFNWYVDGVEVHNAKTKPREEQYNSTYRVVSVLTVLHQDWLNGKEYKCKVSNKALGAPIEKTISKAKGQPREPQVCTLPPSRDELTKNQVSLSCAVKGFYPSDIAVEWESNGQPENNYKTTPPVLDSDGSFFLVSKLTVDKSRWQQGNVFSCSVMHEALHNHYTQKSLSLSPG
light 1: DIVMTQTPLSLSVTPGQPASISCRSSQSLVHSNGNTFLHWYLQKPGQSPQLLIYTVSNRFSGVPDRFSGSGSGTDFTLKISRVEAEDVGVYFCSQTTHVPWTFGGGTKVEIKRTVAAPSVFIFPPSDRKLKSGTASVVCLLNNFYPREAKVQWKVDNALQSGNSQESVTEQDSKDSTYSLSSTLTLSKADYEKHKVYACEVTHQGLSSPVTKSFNRGEC
light 2: QVQLVQSGAEVKKPGASVKVSCKASGYTLTDYNMDWVRQAPGQGLEWIGDIYPNTGGTIYNQKFKGRVTMTIDTSTSTVYMELSSLRSEDTAVYYCTRFRGIHYAMDYWGQGTTVTVSSASVAAPSVFIFPPSDEQLKSGTASVVCLLNNFYPREAKVQWKVDNALQSGNSQESVTEQDSKDSTYSLSSTLTLSKADYEKHKVYACEVTHQGLSSPVTKSFNRGEC
notes: Human IgG1 Fc with L234A, L235A, P329G; also called RO7300490 analog
